The source of these data is patent US10821160B2, “L-asparaginase variants and fusion proteins with reduced L-glutaminase activity and enhanced stability” (priority 2016, dated 2020).

A word on the Km: it is the substrate concentration at which the rate is half of its maximum. Broadly, the kcat is the number of substrate molecules converted per active site and unit of time at saturation. As usually defined, the kcat/Km is the second-order rate constant that governs catalysis at low substrate concentration.

Series [1] has as its system NC(=O)C[C@H](N)C(=O)O. Briefly: purified protein, by the assay type. Particulars: other: Asn, 37° C.
Series [2] relates to NC(=O)C[C@H](N)C(=O)O. The series is described as follows: purified protein, by the assay type. The format is biochemical, Erwinia chrysanthemi. To be noted: other: Asn, 37° C. The procedure:
(§1) L-asparaginase activity was determined using a continuous spectroscopic enzyme-coupled assay as previously described (Schalk, et al. (2014) J. Biol. Chem. 289:33175-33186). In brief, the assay measures the production of L-aspartate through the 1:1 oxidation of reduced NADH. The conversion of NADH to NAD^+ was measured spectrophotometrically as a decrease in absorbance at 340 nm at 37° C. All measurements were taken in triplicate. Rates were fit to the Michaelis-Menten equation using SIGMAPLOT software (Systat Software Inc).
Using colorimetric enzyme-coupled assays, L-asparaginase and L-glutaminase activity of the enzymes was determined. […] Seventeen of the 18 mutants had reduced L-glutaminase activity (Table 7). However, for most of the mutants, this decrease was concomitant with a decline in the L-asparaginase activity. Using the criteria of (i) ≥60% retained L-asparaginase activity (relative to Erw-WT) and (ii) ≤5% L-glutaminase versus and L-asparaginase activity, mutants ErA-E63Q, ErA-S254P, ErA-A31I+E63Q and ErA-S254N+E63Q were selected for further study.

Series [3] relates to NC(=O)C[C@H](N)C(=O)O. Briefly: purified protein, by the assay type. The format is biochemical, Erwinia chrysanthemi. Particulars: other: Asn, 37° C. The source holds these as a separate data set.
Another series concerns NC(=O)CC[C@H](N)C(=O)O. Briefly: purified protein, by the assay type. Particulars: other: Gln, 37° C, pH 8.5.
Substrate in series [4]: NC(=O)C[C@H](N)C(=O)O
Briefly: L-asparaginase activity, continuous spectroscopic enzyme-coupled assay. To be noted: other: Asn, 37° C. The format is biochemical, Escherichia coli. The procedure: as §1
The parameters that define the asparagine-depleting power of such enzyme drugs are of significance. […] Enzymologists often combine these two parameters into a single value (kcat/Km) that is thought to represent the efficiency of the enzyme. […] Therefore, the ErA enzyme was selected for developing a variant with low L-glutaminase activity.

Substrate in series [5]: NC(=O)CC[C@H](N)C(=O)O
Briefly: L-glutaminase activity, GDH/INT coupled assay. The format is biochemical, Escherichia coli. Particulars: other: Gln, 37° C, pH 8.5. The procedure: A conventional assay for determining L-glutaminase activity (Gella & Pascual (1982) Anal. Biochem. 127:322-5) was used with some modifications. The purified enzyme was mixed into a solution containing 50 mM Tris-HCl pH 8.5, 1 mg/mL BSA, 7 U GDH (Glutamate dehydrogenase, Sigma-Aldrich), 3 mM INT (Iodonitrotetrazolium chloride, Sigma-Aldrich), 100 mM PMS (Phenazine methosulfate, Sigma-Aldrich), and 100 mM NAD+. […] The latter, in the presence of NAD+ and under the catalysis of GDH, is broken further into α-ketoglutarate and ammonia. NADH produced by this second reaction, together with INT serve as inputs to the third reaction, where the formation of INT-formazan under the catalysis of PMS can be followed spectrophotometrically as an increase in absorbance at 500 nm. All reactions were carried out at 37° C. 1 IU of enzyme is defined as the amount of enzyme used to produce 1 μmole of product in 1 minute at 37° C.

Turning to “Erwinia chrysanthemi L-asparaginase (ErA) variant E63Q (ErA-E63Q), SEQ ID NO:2 (Dickeya chrysanthemi; E84Q)”, the Michaelis constant (Km) with NC(=O)C[C@H](N)C(=O)O [1] is 51 µM.

Consider “Erwinia chrysanthemi L-asparaginase (ErA) variant A31I-E63Q (ErA-DM2), SEQ ID NO:4 (Dickeya chrysanthemi; A52I/E84Q)”, for which, in the series on NC(=O)C[C@H](N)C(=O)O [2], the Km was found to be 37 µM.

With “Erwinia chrysanthemi L-asparaginase (ErA) variant E63Q-S254N (ErA-DM1), SEQ ID NO:3 (Dickeya chrysanthemi; E84Q/S275N)”, the Km in the series on NC(=O)C[C@H](N)C(=O)O [3] turned out to be 185 µM.

Turning to “Erwinia chrysanthemi L-asparaginase (ErA) variant A31I-E63Q-S254Q (ErA-TM2), SEQ ID NO:6 (Dickeya chrysanthemi; A52I/E84Q/S275Q)”, the Km in the series on NC(=O)CC[C@H](N)C(=O)O was determined as 47500 ± 700 µM.

B1: Escherichia coli L-asparaginase, wild type (EcA-WT), SEQ ID NO:9 (Escherichia coli K-12) (protein)
chain: MLPNITILATGGTIAGGGDSATKSNYTVGKVGVENLVNAVPQLKDIANVKGEQVVNIGSQDMNDNVWLTLAKKINTDCDKTDGFVITHGTDTMEETAYFLDLTVKCDKPVVMVGAMRPSTSMSADGPFNLYNAVVTAADKASANRGVLVVMNDTVLDGRDVTKTNTTDVATFKSVNYGPLGYIHNGKIDYQRTPARKHTSDTPFDVSKLNELPKVGIVYNYANASDLPAKALVDAGYDGIVSAGVGNGNLYKSVFDTLATAAKTGTAVVRSSRVPTGATTQDAEVDDAKYGFVASGTLNPQKARVLLQLALTQTKDPQQIQQIFNQY
As to B1, in series [4], the Michaelis-Menten constant (Km) was found to be 15.0 ± 0.5 µM, the kcat stood at 44.4 ± 0.3 s⁻¹ and the kcat/Km is 2.96e+06 M⁻¹ s⁻¹. Further, in series [5], the Km is 1380 ± 90 µM, the catalytic constant (kcat) is 0.89 ± 0.01 s⁻¹ and the kcat/Km is 640 M⁻¹ s⁻¹.
